Measurements as given in patent US5037646A, “Processes for the treatment of vascular disease” (Genentech, Inc., priority 1990, dated 1991).
Values joined by “and” are separate entries in the source; they are usually repeats but may differ in a detail not shown here. Identical values can stand only once. Like-named read-outs stand apart in the source and are kept apart here.

Assays:
fibrin clot = assay: In vitro fibrin clot lysis assay with saturating plasminogen; assay type: biochemical; conditions: t-PA = 1.0
Source text: In order to further compare the ability of des 1-44 t-PA to activate plasminogen in the presence of fibrin(ogen), it was compared to t-PA in an assay which measures the ability of t-PA and saturating plasminogen to lyse a fibrin clot.

[1] = In vitro protease amidolytic assay with S-2288 substrate; assay type: biochemical; conditions: S-2288, 23 nM protein, pH 7.4
Procedure: The activity of des (1-44) t-PA in a protease amidolytic assay was compared to that of natural t-PA using the S-2288 paranitroanilide chromogenic substrate (Helena Labs). The S-2288 paranitroanilide substrate provides a direct measurement of protease amidolytic activity. The kinetic constants for t-PA and des 1-44 t-PA were determined with the S-2288 substrate using an H-P diode array spectrophotometer (HP8451-A). Hydrolysis of the substrate was measured continuously at two substrate concentrations (1.0 mM and 0.1 mM) while the protein concentrations were held constant at 23 nM in a buffer composed of 0.05M Tris-HCl, 0.12M NaCl, 0.01% Tween 80, pH 7.4. Using the differential form of the Michaelis-Menten equation and a non-linear regression the Km and Vmax were calculated from the curves of the progress of the reaction.

plasminogen = assay: In vitro plasminogen activation, two-stage assay with plasmin specific substrate S-2251; assay type: biochemical
Procedure: The ability of t-PA to activate plasminogen can be measured in an in vitro assay by preincubating t-PA and plasminogen and then adding the plasmin specific substrate H-D-valyl-H-leucyl-H-lysine-p-nitronilide (S-2251). The maximum rate of this reaction is observed in the presence of fibrin(ogen) or fragments of fibrin(ogen) which act as stimulators of the reaction.
The plasmin specific substrate S-2251 was used in a two-stage assay to measure the ability of the sample to activate plasminogen. Fibrin clots were made by incubating the sample with 0.02 ml of a 20 mg/ml fibrinogen solution with 1U of thrombin in a total volume of 0.12 ml of 0.05M Tris-HCl, 0.12M NaCl, 0.01% Tween 80, pH 7.4 for 30 min. at 37' C. Alternatively, the thrombin could be omitted and fibrinogen used as the stimulator. Glu-plasminogen solution, 0.03 ml of a 2.1 mg/ml solution, was then added. After 10 min at 37' C., 0.35 ml of 2.86 mM S-2251 in 0.037M Tris, 0.86 NaCl, 0.007% Tween 80, pH 7.4) were added. This mixture was incubated for five minutes then the reaction was stopped by the addition of 0.1 ml of 50% glacial acetic acid. Absorbance at 405 nm was measured. The activity was expressed as the change in absorbance per nanogram per minute in the presence of substrate.
The stimulation is the ratio of the specific activity of the sample containing fibrin and the specific activity of the sample not containing fibrin.

[2] = cited from earlier work
[3] = rabbits; cited from earlier work
[4] = monkeys; cited from earlier work
[5] = Pharmacokinetics of I-125 labeled t-PA, i.v. bolus in rabbits; assay type: in vivo, rabbit; design: B0 / t1/2b / A0 / AUMC × 10^- 6: unit not given here; conditions: carrier 1 mg/kg cold rt-PA; for CL (clearance rate): natural t-PA
Procedure: Comparative pharmacokinetic studies were performed in rabbits. I-125 labeled test t-PA, either wild type or N44 variant, 5 uCi/kg with a specific activity of 5 to 10 uCi/ug, and carrier wild type t-PA, 1.0 mg/kg, were coinjected, serial blood samples were collected, plasma prepared and the TCA (trichloroacetic acid) precipitable counts were determined at each time point. TCA precipitation was used in order to remove any small metabolites which appear at later times due to degradation of t-PA by the liver. The plasma concentration time curve for rt-PA was fit to a biexponential equation C-Aexp(-alphaXt)+Bexp(-betaXt). The curve for the des (1-44) rt-PA was fit to a monoexponential equation C-Aexp(-alphaXt). The clearance (Cl) was calculated by the formula Cl-DOSE/AUC, where AUC is the area under the plasma concentration time curve. […]

[6] = individual rabbits #A, #C, #E, #G

For “natural t-PA: human tissue plasminogen activator, amino acids 1-527, whether obtained from natural or recombinant sources”, the “Clot lysis (relative units)” value (fibrin clot) was 1.0 relative units, the kcat [1] was 17.9 s⁻¹ and the “Stim (stimulation: specific activity with / without)” value (plasminogen; With Fibrin Clots) was 100. For the same substance, the “rel (relative activity)” value (plasminogen; With Fibrin Clots, relative to t-PA) was 100%, the “Stim (stimulation: specific activity with / without)” value (plasminogen; With Fibrinogen) was 100 and the “+Fgn rel (relative activity)” value (plasminogen; With Fibrinogen, relative to t-PA) was 100%. The “increase of activity in the presence of fibrin” value (plasminogen; in the presence of fibrin) was “about 50 fold”, the t1/2b ([2]; beta phase) was “about 30 minutes” and the t1/2a ([2]; dominant alpha phase) was “about 2.2 minutes”. For the same substance, the t1/2a component ([2]; where Co=100) was “about 95%”, the t1/2b component ([2]; where Co=100) was “about 5%” and the nominal half-life [3] was “about 2 minutes”. The nominal half-life [4] was ~3.5 min, the “AUMC × 10^- 6” value ([5]; MEAN) was 601.493 and the VDSS ([5]; MEAN) was 0.213336 L/kg. It also gave a t1/2b ([5]; MEAN) of 28.868, an A0 ([5]; MEAN, biexponential fit) of 275201 and a B0 ([5]; MEAN, biexponential fit) of 30352.649. The t1/2a ([5]; MEAN, unit from b248, listed as rT-PA) was 3.067 min, the t1/2a ([5]; MEAN, unit from b248, listed as rt-PA) was “about 3.1 minutes” and the “CL (clearance rate)” value ([5]; MEAN, listed as rT-PA) was 8.357 mL/min/kg. The “CL (clearance rate)” value ([5]; MEAN, listed as rt-PA) was “about 8.4 ml/min/kg”, the A0 [5, 6] was 247990 and 306059 and 255904 and 290852 and the “AUMC × 10^- 6” value [5, 6] was 789.510 and 452.925 and 637.710 and 525.828. For the same substance, the B0 [5, 6] was 30144.320 and 32920.033 and 27005.306 and 31340.936, the CL [5, 6] was 7.063 mL/min/kg and 9.222 mL/min/kg and 8.567 mL/min/kg and 8.577 mL/min/kg and the VDSS [5, 6] was 0.209553 L/kg and 0.197899 L/kg and 0.232427 L/kg and 0.213466 L/kg. For the same substance, the t1/2a [5, 6] was 3.716 min and 2.645 min and 3.334 min and 2.575 min and the t1/2b [5, 6] was 33.236 and 23.987 and 31.782 and 26.467.
